The numbers were not newly measured in paper PMC11678748, which cites them from elsewhere.

In this series the target is KCCYSL peptide (synthetic construct).

Regarding HER2 (from UniProt P04626), the Kd was 295 nM.
